This sample holds only a part of the variants without activity.
B1: TPR 5TU (parent)
chain: GGAUCUUCUCGAUCUAACAAAAAAGACAAAUCUGCCACAAAGCUUGAGAGCAUCUUCGGAUGCAGAGGCGGCAGCCUUCGGUGGCGCGAUAGCGCCAACGUUCUCAACUAUGACACGCAAAACGCGUGCUCCGUUGAAUGGAGUUUAUCAUG

Variants of: B1
Assay: polymerase ribozyme fitness, log enrichment relative to wild type (log ratio); higher = more active; in vitro selection for triplet polymerase activity
How it was run: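 Only genotypes with ≥10 input reads and ≥1 read per output were kept after Illumina sequencing of input and output libraries. These libraries were PCR-built, transcribed mutants of each subunit of a heterodimeric triplet polymerase ribozyme, each put through one triplicate in vitro selection round with frozen incubation at −7 °C, gel excision of extended constructs, streptavidin-bead capture and RT-PCR. Fitness is a logarithmic ratio of genotype enrichment to wild-type enrichment, from inverse-variance-weighted replicate averages, with the logarithm in base 2.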
With A23G C27A C32U G50C A73G C85G the “polymerase ribozyme fitness (log ratio)” value was ≤ -4.2. In the case of A22C A39U U139A, the “polymerase ribozyme fitness (log ratio)” value is reported as ≤ -4.2. With A23U C43U A73U C85A A97C C105G G140U the “polymerase ribozyme fitness (log ratio)” value was ≤ -4.2. With A23U A47G U55A the “polymerase ribozyme fitness (log ratio)” value was ≤ -4.2. With A22G C85A the “polymerase ribozyme fitness (log ratio)” value was -1.12. With A22G A40G G42C C79A G94C the “polymerase ribozyme fitness (log ratio)” value was ≤ -4.2. In the case of A24C C51U C54G G74U C85G A97U, the “polymerase ribozyme fitness (log ratio)” value is reported as -4.18. For A22U A49G A60G G83U G84U, the “polymerase ribozyme fitness (log ratio)” value was -3.24. With A23U A29U G50A C69G A89C G112C A120U A122U the “polymerase ribozyme fitness (log ratio)” value was ≤ -4.2. In the case of A23C G34U, the “polymerase ribozyme fitness (log ratio)” value is reported as -3.82. In the case of A22C C38U G83C A122G G141U, the “polymerase ribozyme fitness (log ratio)” value is reported as 0.178. For A23U U44G C76A C79U U82A G86A G143A, the “polymerase ribozyme fitness (log ratio)” value was ≤ -4.2. With A22C C27U U127C the “polymerase ribozyme fitness (log ratio)” value was -3.95. In the case of A22C A28U G88U, the “polymerase ribozyme fitness (log ratio)” value is reported as ≤ -4.2. In the case of A22C G58A C72A C87G C125G G126U, the “polymerase ribozyme fitness (log ratio)” value is reported as ≤ -4.2. In the case of A24G G83C U101G C123A G141U, the “polymerase ribozyme fitness (log ratio)” value is reported as ≤ -4.2. For A22C A26U C36U C54U C85U A98U A106G, the “polymerase ribozyme fitness (log ratio)” value was ≤ -4.2. With A24G A52C A110U the “polymerase ribozyme fitness (log ratio)” value was ≤ -4.2. With A22G A23C G83A the “polymerase ribozyme fitness (log ratio)” value was ≤ -4.2. With A23U A28G C87U U145A the “polymerase ribozyme fitness (log ratio)” value was ≤ -4.2. For A22U G83C G86U C108A C129U, the “polymerase ribozyme fitness (log ratio)” value was ≤ -4.2. With A22C A40U G81U C93A C99U C116A the “polymerase ribozyme fitness (log ratio)” value was -3.08. With A22G C123A A147U the “polymerase ribozyme fitness (log ratio)” value was 1.6. With A23U A39G A91C the “polymerase ribozyme fitness (log ratio)” value was ≤ -4.2. In the case of A21U U101C, the “polymerase ribozyme fitness (log ratio)” value is reported as 0.366. For A24G A120U, the “polymerase ribozyme fitness (log ratio)” value was -3.9. In the case of A22C C96U, the “polymerase ribozyme fitness (log ratio)” value is reported as -0.0389. For A23C C27U A47C C57A A73G A91G U101G U134A, the “polymerase ribozyme fitness (log ratio)” value was ≤ -4.2. With A24C U44A G50U U55A the “polymerase ribozyme fitness (log ratio)” value was ≤ -4.2. With A22G G84U G88U A89U the “polymerase ribozyme fitness (log ratio)” value was ≤ -4.2. For A24C A39G, the “polymerase ribozyme fitness (log ratio)” value was -3.42. For A24C G71A U135C U146C U148A, the “polymerase ribozyme fitness (log ratio)” value was ≤ -4.2. With A22C A28G G48C G62A A64C C85U the “polymerase ribozyme fitness (log ratio)” value was ≤ -4.2. With A23U C63A C114G the “polymerase ribozyme fitness (log ratio)” value was ≤ -4.2. With A22U A24G C43U C57G G59A A89G G92C U135A the “polymerase ribozyme fitness (log ratio)” value was ≤ -4.2. With A24C G48A G84U A106U A142U the “polymerase ribozyme fitness (log ratio)” value was ≤ -4.2. In the case of A22G C32G A40C G84A, the “polymerase ribozyme fitness (log ratio)” value is reported as -4.13. With A24G G25U C75G G80A C85G U130A A142C the “polymerase ribozyme fitness (log ratio)” value was ≤ -4.2. For A23C C35A C87A, the “polymerase ribozyme fitness (log ratio)” value was -4.05. In the case of A23C U53A C57U C96G C103G, the “polymerase ribozyme fitness (log ratio)” value is reported as ≤ -4.2. With A23U U139A the “polymerase ribozyme fitness (log ratio)” value was ≤ -4.2. In the case of A22C G50C C57G G80U C87A A150U, the “polymerase ribozyme fitness (log ratio)” value is reported as ≤ -4.2. In the case of A24C G46A C57G C75G A89G C96G, the “polymerase ribozyme fitness (log ratio)” value is reported as ≤ -4.2. For A22U A49U U55A G84U G100U C108U, the “polymerase ribozyme fitness (log ratio)” value was ≤ -4.2. For A23G C54G G80C C105U C108U A113C C132G, the “polymerase ribozyme fitness (log ratio)” value was ≤ -4.2. With A24G C54U the “polymerase ribozyme fitness (log ratio)” value was -2.83. With A23U U53A U55G C95U C103U C114U G126A G136U A150U the “polymerase ribozyme fitness (log ratio)” value was ≤ -4.2. With A22C A52C the “polymerase ribozyme fitness (log ratio)” value was -1.04. For A21U G92C, the “polymerase ribozyme fitness (log ratio)” value was 0.0736. For A23C A41C C54G U77A A91G C105G G126A G136A A137G, the “polymerase ribozyme fitness (log ratio)” value was ≤ -4.2. In the case of A23U G80A A150G, the “polymerase ribozyme fitness (log ratio)” value is reported as ≤ -4.2. In the case of A23G A49C G65C G80U G86U C99A, the “polymerase ribozyme fitness (log ratio)” value is reported as ≤ -4.2. With A22G U53G C54G U55C A73G A91C C105U C116U U127G U135C the “polymerase ribozyme fitness (log ratio)” value was ≤ -4.2. In the case of A22U C87A C99U C103G A142C, the “polymerase ribozyme fitness (log ratio)” value is reported as ≤ -4.2. With A23G A24U G58A A60G C85G U101A G128A U130C U144G the “polymerase ribozyme fitness (log ratio)” value was ≤ -4.2. In the case of A23G C54G U56A A138U G140U U146C, the “polymerase ribozyme fitness (log ratio)” value is reported as ≤ -4.2. In the case of A23C G58A C96U A106G, the “polymerase ribozyme fitness (log ratio)” value is reported as ≤ -4.2. With A21U U33G U61C G62A A66C C72A G80C C85U A107G the “polymerase ribozyme fitness (log ratio)” value was ≤ -4.2. For A22C G86A U101A G141A A142G, the “polymerase ribozyme fitness (log ratio)” value was ≤ -4.2. With A21U U33G G59C C72G A89C C96A A115C U146C the “polymerase ribozyme fitness (log ratio)” value was ≤ -4.2. With A22U G81A C125A the “polymerase ribozyme fitness (log ratio)” value was -0.142. In the case of A22C A60U A66U C93U G100C A138G C149A, the “polymerase ribozyme fitness (log ratio)” value is reported as ≤ -4.2. For A23C G42C U77A G80C U101G, the “polymerase ribozyme fitness (log ratio)” value was ≤ -4.2. In the case of A22U C85G, the “polymerase ribozyme fitness (log ratio)” value is reported as -1.73. In the case of A22C C69U C93U, the “polymerase ribozyme fitness (log ratio)” value is reported as -1.59. In the case of A23G U134A, the “polymerase ribozyme fitness (log ratio)” value is reported as ≤ -4.2. In the case of A22G G84U, the “polymerase ribozyme fitness (log ratio)” value is reported as -2.74. In the case of A23U A40U C51U U78G, the “polymerase ribozyme fitness (log ratio)” value is reported as ≤ -4.2. For A22G G59C C75G C108G A138G, the “polymerase ribozyme fitness (log ratio)” value was ≤ -4.2. For A22U C38U A73U C96U, the “polymerase ribozyme fitness (log ratio)” value was 0.145. With A23U A24U U56A A106C A150U the “polymerase ribozyme fitness (log ratio)” value was -3.89. With A22U G50C C54A C63G A106U A119G the “polymerase ribozyme fitness (log ratio)” value was -3.06. For A22G U55A G83U C129A, the “polymerase ribozyme fitness (log ratio)” value was -3.65. With A23U A28G C32G C85U G128U C129A U146G the “polymerase ribozyme fitness (log ratio)” value was -4.14. In the case of A22G A41G C51A C76A G94U A97U G141A, the “polymerase ribozyme fitness (log ratio)” value is reported as ≤ -4.2. For A21U G50C U53A, the “polymerase ribozyme fitness (log ratio)” value was -3.62. For A22U C54U G88C A106G U146A, the “polymerase ribozyme fitness (log ratio)” value was ≤ -4.2. For A22C A98G, the “polymerase ribozyme fitness (log ratio)” value was -0.486. For A24G G70C C79U C95A C96G, the “polymerase ribozyme fitness (log ratio)” value was ≤ -4.2. With A23C G25C C32U A52C C85A the “polymerase ribozyme fitness (log ratio)” value was ≤ -4.2. With A22G U56A C85U the “polymerase ribozyme fitness (log ratio)” value was -0.116. In the case of A22U U53A, the “polymerase ribozyme fitness (log ratio)” value is reported as -1.05. For A24G C35U, the “polymerase ribozyme fitness (log ratio)” value was -3.09.

— the RNAGym collection of RNA variant scans (doi:10.1073/pnas.2313332121)
